Measured values reported in US20180360972A1, “THERAPEUTIC COMPOUNDS” (REGENTS OF THE UNIVERSITY OF MINNESOTA, priority 2017, published 2018).

Target: mMC4R-NanoLuc and mMC4R-HaloTag homodimer (mouse) (UniProt P56450)
Experiment: cell-based or functional assay

mMC4R-NanoLuc and mMC4R-HaloTag homodimer (mouse), sequence (P56450 whole entry, chain 1 of 2): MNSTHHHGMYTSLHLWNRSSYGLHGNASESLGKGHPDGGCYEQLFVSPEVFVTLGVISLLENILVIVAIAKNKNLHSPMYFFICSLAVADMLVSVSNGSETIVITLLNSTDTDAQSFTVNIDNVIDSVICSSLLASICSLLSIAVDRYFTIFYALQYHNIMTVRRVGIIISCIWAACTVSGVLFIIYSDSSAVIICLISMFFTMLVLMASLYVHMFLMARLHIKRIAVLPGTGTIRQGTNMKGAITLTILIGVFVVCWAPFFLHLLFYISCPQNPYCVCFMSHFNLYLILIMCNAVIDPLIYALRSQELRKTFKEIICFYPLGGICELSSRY
mMC4R-NanoLuc and mMC4R-HaloTag homodimer (mouse), sequence (P56450 whole entry, chain 2 of 2): as the sequence (P56450 whole entry, chain 1 of 2) above

reduction in BRET signal at 10 µM compared to basal signal: 15%
Substance: α-MSH (from UniProt P01189 138-150) (ligand)
